Source: patent publication US20060257938A1, “Method of screening for drugs that block ligand binding to a lipid binding protein” (priority 2005, published 2006)
Numbering of substitutions follows the chain as printed.

B1: 91Y, 72A (protein, listed as Rattus norvegicus)
chain: AFDGTWKVDRNENYEKFMEKMGINVVKRKLGAHDNLKLTITQEGNKFTVKESSNFRNIDVVFELGVDFAYSAADGTELTGTWTMEGNKLVYKFKRVDNGKELIAVREISGNELIQTYTYEGVEAKRIFKKE
modifications: PEPTIDE (1)...(131) wild-type rat intestinal fatty acid binding protein
B2: 106N, 72A (protein, listed as Rattus norvegicus)
chain: B1 chain with Y91G, R106N
modifications: PEPTIDE (1)...(131) wild-type rat intestinal fatty acid binding protein
B3: 106V, 72A (protein, listed as Rattus norvegicus)
chain: B1 chain with Y91G, R106V
modifications: PEPTIDE (1)...(131) wild-type rat intestinal fatty acid binding protein
B4: 106H, 72A (protein, listed as Rattus norvegicus)
chain: B1 chain with Y91G, R106H
modifications: PEPTIDE (1)...(131) wild-type rat intestinal fatty acid binding protein
B5: 14I 72A (protein, listed as Rattus norvegicus)
chain: B1 chain with Y14I, Y91G
modifications: PEPTIDE (1)...(131) wild-type rat intestinal fatty acid binding protein
B6: 14L 38M 72A 117F (protein, listed as Rattus norvegicus)
chain: B1 chain with Y14L, L38M, Y91G, Y117F
modifications: PEPTIDE (1)...(131) wild-type rat intestinal fatty acid binding protein
B7: 14I 38I 72V (protein, listed as Rattus norvegicus)
chain: B1 chain with Y14I, L38I, A72V, Y91G
modifications: PEPTIDE (1)...(131) wild-type rat intestinal fatty acid binding protein
B8: 106S, 72A (protein, listed as Rattus norvegicus)
chain: B1 chain with Y91G, R106S
modifications: PEPTIDE (1)...(131) wild-type rat intestinal fatty acid binding protein
B9: 38M 72G 117F (protein, listed as Rattus norvegicus)
chain: B1 chain with L38M, A72G, Y91G, Y117F
modifications: PEPTIDE (1)...(131) wild-type rat intestinal fatty acid binding protein
B10: 106I, 72A (protein, listed as Rattus norvegicus)
chain: B1 chain with Y91G, R106I
modifications: PEPTIDE (1)...(131) wild-type rat intestinal fatty acid binding protein
B11: 49N, 72A (protein, listed as Rattus norvegicus)
chain: B1 chain with V49N, Y91G
modifications: PEPTIDE (1)...(131) wild-type rat intestinal fatty acid binding protein
B12: 106L, 72A (protein, listed as Rattus norvegicus)
chain: B1 chain with Y91G, R106L
modifications: PEPTIDE (1)...(131) wild-type rat intestinal fatty acid binding protein
B13: 106A, 72A (protein, listed as Rattus norvegicus)
chain: B1 chain with Y91G, R106A
modifications: PEPTIDE (1)...(131) wild-type rat intestinal fatty acid binding protein
B14: 91C, 72A (protein, listed as Rattus norvegicus)
chain: B1 chain with Y91C
modifications: PEPTIDE (1)...(131) wild-type rat intestinal fatty acid binding protein
B15: 11I, 72A (protein, listed as Rattus norvegicus)
chain: B1 chain with N11I, Y91G
modifications: PEPTIDE (1)...(131) wild-type rat intestinal fatty acid binding protein
B16: 11Y, 72A (protein, listed as Rattus norvegicus)
chain: B1 chain with N11Y, Y91G
modifications: PEPTIDE (1)...(131) wild-type rat intestinal fatty acid binding protein
B17: 55L, 72A (protein, listed as Rattus norvegicus)
chain: B1 chain with F55L, Y91G
modifications: PEPTIDE (1)...(131) wild-type rat intestinal fatty acid binding protein
B18: 14L 72A (protein, listed as Rattus norvegicus)
chain: B1 chain with Y14L, Y91G
modifications: PEPTIDE (1)...(131) wild-type rat intestinal fatty acid binding protein
B19: 106T, 72A (protein, listed as Rattus norvegicus)
chain: B1 chain with Y91G, R106T
modifications: PEPTIDE (1)...(131) wild-type rat intestinal fatty acid binding protein
B20: 38H, 72A (protein, listed as Rattus norvegicus)
chain: B1 chain with L38H, Y91G
modifications: PEPTIDE (1)...(131) wild-type rat intestinal fatty acid binding protein

experiment: Probe fluorescence ratio response to arachidonic acid relative to ADIFAB2; type: binding; conditions: arachidonic acid; response relative to ADIFAB2
Summary of the method: (§1)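 Fluorescently labeled rat intestinal FABP variants were read at two emission wavelengths, near the unbound maximum (about 420 to 480 nm) and the FFA-bound maximum (about 495 to 580 nm). R = Fλ1/Fλ2 after subtracting probe-free intensity; ΔR = R+agent − R0, normalized to ADIFAB2 (rI-FABP-L72A).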

Row | Molecule | DR/DR AA
1 | B1 | 1.273
2 | B2 | 0.384
3 | B3 | 0.398
4 | B4 | 0.636
5 | B5 | 0.825
6 | B6 | 0.861
7 | B7 | 0.715
8 | B8 | 0.321
9 | B9 | 1.280
10 | B10 | 0.481
11 | B11 | 1.255
12 | B12 | 0.383
13 | B13 | 0.389
14 | B14 | 1.201
15 | B15 | 0.584
16 | B16 | 0.516
17 | B17 | 0.863
18 | B18 | 0.838
19 | B19 | 0.250
20 | B20 | 0.998

experiment: Probe fluorescence ratio response to linolenic acid relative to ADIFAB2; type: binding; conditions: response relative to ADIFAB2
Summary of the method: as §1

Row | Molecule | DR/DR LNA
21 | B1 | 1.626
22 | B2 | 0.445
23 | B3 | 0.592
24 | B4 | 0.633
25 | B5 | 0.997
26 | B6 | 0.921
27 | B7 | 0.926
28 | B8 | 0.403
29 | B9 | 0.733
30 | B10 | 0.624
31 | B11 | 1.181
32 | B12 | 0.364
33 | B13 | 0.518
34 | B14 | 1.420
35 | B15 | 0.507
36 | B16 | 0.311
37 | B17 | 0.719
38 | B18 | 0.867
39 | B19 | 0.367
40 | B20 | 0.864

experiment: Probe fluorescence ratio response to linoleic acid relative to ADIFAB2; type: binding; conditions: response relative to ADIFAB2
Summary of the method: as §1

Row | Molecule | DR/DR LA
41 | B1 | 1.415
42 | B2 | 0.451
43 | B3 | 0.574
44 | B4 | 0.669
45 | B5 | 0.944
46 | B6 | 0.830
47 | B7 | 0.862
48 | B8 | 0.355
49 | B9 | 0.748
50 | B10 | 0.563
51 | B11 | 1.099
52 | B12 | 0.382
53 | B13 | 0.515
54 | B14 | 1.371
55 | B15 | 0.546
56 | B16 | 0.330
57 | B17 | 0.706
58 | B18 | 0.766
59 | B19 | 0.246
60 | B20 | 0.905

experiment: Probe fluorescence ratio response to oleic acid relative to ADIFAB2; type: binding; conditions: response relative to ADIFAB2
Summary of the method: as §1

Row | Molecule | DR/DR OA
61 | B1 | 1.706
62 | B2 | 0.496
63 | B3 | 0.657
64 | B4 | 0.732
65 | B5 | 0.478
66 | B6 | 0.458
67 | B7 | 0.398
68 | B8 | 0.478
69 | B9 | 0.686
70 | B10 | 0.661
71 | B11 | 1.108
72 | B12 | 0.431
73 | B13 | 0.596
74 | B14 | 1.470
75 | B15 | 0.387
76 | B16 | 0.156
77 | B17 | 0.822
78 | B18 | 0.446
79 | B19 | 0.434
80 | B20 | 0.955

experiment: Probe fluorescence ratio response to palmitic acid relative to ADIFAB2; type: binding; conditions: response relative to ADIFAB2
Summary of the method: as §1

Row | Molecule | DR/DR PA
81 | B1 | 0.870
82 | B2 | 0.152
83 | B3 | 0.191
84 | B4 | 0.258
85 | B5 | 0.762
86 | B6 | 0.472
87 | B7 | 0.844
88 | B8 | 0.149
89 | B9 | 0.438
90 | B10 | 0.223
91 | B11 | 0.740
92 | B12 | 0.183
93 | B13 | 0.164
94 | B14 | 0.794
95 | B15 | 1.186
96 | B16 | 0.296
97 | B17 | 0.631
98 | B18 | 0.534
99 | B19 | 0.118
100 | B20 | 0.624
